Results: patent publication US20230002481A1 (Chugai, published 2023)

Molecular target: T1, recombinant human C1r2s2 tetramer (human, UniProt P09871 16-688; P00736 18-705)
T1 construct: Heterotetramer of two C1r and two C1s chains, co-expressed in FreeStyle293-F cells; also called human C1r2s2s
T1 chain 1: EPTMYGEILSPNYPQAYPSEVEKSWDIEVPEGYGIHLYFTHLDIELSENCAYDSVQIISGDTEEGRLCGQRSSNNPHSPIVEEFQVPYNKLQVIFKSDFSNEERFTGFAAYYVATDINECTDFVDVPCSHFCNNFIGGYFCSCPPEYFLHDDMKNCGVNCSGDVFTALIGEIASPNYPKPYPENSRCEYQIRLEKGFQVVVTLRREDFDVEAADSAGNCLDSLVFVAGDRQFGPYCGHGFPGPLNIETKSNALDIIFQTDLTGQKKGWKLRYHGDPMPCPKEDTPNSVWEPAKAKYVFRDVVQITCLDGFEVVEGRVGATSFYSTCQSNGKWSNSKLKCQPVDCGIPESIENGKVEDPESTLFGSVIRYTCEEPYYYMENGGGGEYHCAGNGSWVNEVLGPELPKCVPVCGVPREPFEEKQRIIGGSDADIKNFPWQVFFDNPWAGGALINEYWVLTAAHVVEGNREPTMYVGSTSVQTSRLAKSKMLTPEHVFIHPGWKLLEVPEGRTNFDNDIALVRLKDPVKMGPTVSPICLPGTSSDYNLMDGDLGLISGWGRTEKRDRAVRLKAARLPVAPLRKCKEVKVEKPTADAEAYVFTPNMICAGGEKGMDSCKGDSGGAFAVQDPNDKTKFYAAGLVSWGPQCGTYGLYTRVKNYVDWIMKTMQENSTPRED
T1 chain 2: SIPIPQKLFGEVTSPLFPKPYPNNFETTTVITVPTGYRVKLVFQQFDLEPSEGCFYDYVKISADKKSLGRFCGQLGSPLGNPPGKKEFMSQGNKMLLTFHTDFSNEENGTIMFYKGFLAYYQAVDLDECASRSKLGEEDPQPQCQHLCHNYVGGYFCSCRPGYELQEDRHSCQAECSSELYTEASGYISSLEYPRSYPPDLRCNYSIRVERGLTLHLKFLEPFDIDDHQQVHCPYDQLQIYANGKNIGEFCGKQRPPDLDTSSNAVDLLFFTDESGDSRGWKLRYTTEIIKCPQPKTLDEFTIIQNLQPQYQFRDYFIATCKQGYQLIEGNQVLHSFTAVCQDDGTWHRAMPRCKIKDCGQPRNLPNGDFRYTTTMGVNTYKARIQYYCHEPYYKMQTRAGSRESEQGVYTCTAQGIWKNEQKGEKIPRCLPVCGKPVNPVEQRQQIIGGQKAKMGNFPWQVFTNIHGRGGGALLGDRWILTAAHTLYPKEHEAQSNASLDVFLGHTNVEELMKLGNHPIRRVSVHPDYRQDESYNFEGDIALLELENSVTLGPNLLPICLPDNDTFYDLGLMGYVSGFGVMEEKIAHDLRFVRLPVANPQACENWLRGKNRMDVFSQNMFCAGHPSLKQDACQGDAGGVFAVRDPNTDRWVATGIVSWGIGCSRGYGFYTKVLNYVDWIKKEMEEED
Assay: SPR (Biacore), antibody captured on ProA/G, antigen as analyte, 37 C, pH7.4, 1.2 mM CaCl2
Description: The kinetic parameters of anti-C1s antibodies against recombinant human C1s (as described in PCT/JP2018/042054), human C1r2s2, and cyno C1r2s2 His/Flag (also referred as cyno C1r2s2 in the Table and Figures) were assessed at pH7.4 and pH5.8, at 37 degrees C. using BIACORE (registered trademark) T200 instrument (GE Healthcare) or BIACORE 4000 (GE Healthcare). ProAG (Pierce) was immobilized onto a CM4 sensorchip using amine coupling kit (GE Healthcare) according to the recommended settings by GE Healthcare. Antibodies and analytes were diluted into the respective running buffers, ACES pH7.4 and pH5.8 (20 mM ACES, 150 mM NaCl, 1.2 mM CaCl₂, 1 mg/ml BSA, 1 mg/ml CMD, 0.05% Tween 20, 0.005 w/v % NaN₃). Each antibody was captured onto the sensor surface by ProA/G. Antibody capture levels were typically 100-200 resonance units (RU). Then, recombinant C1s was injected at concentrations of 25 and 50 nM followed by dissociation at pH7.4 and pH5.8. The surface was regenerated using 10 mM Glycine-HCl, pH1.5. Kinetic parameters at neutral pH conditions and acidic conditions were determined by fitting the sensorgrams with 1:1 binding model using BIACORE (registered trademark) T200 Evaluation software, version 2.0 (GE Healthcare) or BIACORE 4000 Evaluation software. The dissociation rate at pH5.8 (after dissociation at pH7.4, indicated as pH5.8* in TABLE 2) was determined by processing and fitting data using Scrubber 2.0 (BioLogic Software) curve fitting software. The association rate (ka), dissociation rate (kd), binding affinity (KD) at pH7.4 and pH5.8 condition, and dissociation rate (kd) at pH5.8* condition of the antibodies are listed in TABLE 2. Some kinetic parameters of COS0098pHv1 in acidic condition were not correctly calculated because of its weak binding response.
Also, to observe the cross-reactivity of anti-C1s antibodies against human C1r2s2 and cyno C1r2s2 (cyno C1r2s2 His/Flag), BIACORE (registered trademark) kinetics analysis was performed.

Kd: 4 nM
koff: 0.00206 s⁻¹
kon: 514000 M⁻¹ s⁻¹
B1: COS0098pHv1 (antibody, V domains shown)
VH: QVQLVQSGAEVKKPGSSVKVSCKASGHTFSKYTVSWIRQPPGKGLEWIGIINTGGSAYPATWAKGRVTITADESTSTAYMELSSLRSEDTAVYYCARGAGDTDYTNLWGQGTLVTVSS
VL: DIQMTQSPSSLSASVGDRVTITCQASENIYSALAWYQQKPGQPPKLLIYGASQLESGVPSRFSGSGSGTDFTLTISSLQPEDFATYYCQQYYFTSHTFGQGTKVEIK
notes: Humanized, optimized pH-dependent variant of COS0098bb
